Experimental data as given in article PMC8199036, “Improved Tumor-Targeting with Peptidomimetic Analogs of Minigastrin ^177Lu-PP-F11N” (Cancers, 2021).
Where two headings read alike, the source gives them in different places. Starred links: 1 amine or outer side, 2 acyl side, 3 side chain; linkers in the order of their positions; H or OH if unused. Non-standard residues stand in square brackets, D forms with d. Residues, ends and D or L forms follow the SMILES beside them. *: point of attachment. DOTA = O=C(O)CN1CCN(CC(=O)O)CCN(CC(=O)*)CCN(CC(=O)O)CC1; X1 = C[C@@H](C(=O)[*:2])n1cc([C@@H](CCC(=O)O)N[*:1])nn1; X2 = O=C(Cn1cc([C@H](Cc2ccc(O)cc2)N[*:1])nn1)[*:2]; Nle = CCCC[C@H](N)C(=O)O

Columns and labels:
[1] = molecular target: T1, CCK2R (Homo sapiens, UniProt P32239); experiment: competition binding assay (receptor displacement of 177Lu-PP-F11N); conditions: read-out: IC50 (95% CI); 175Lu-labeled; displacement of 177Lu-PP-F11N (2 nM) on A431-CCK2R cells
T1 construct: expressed in transfected cells; host or cells: A431-CCK2R cells
T1 sequence (P32239 1-447): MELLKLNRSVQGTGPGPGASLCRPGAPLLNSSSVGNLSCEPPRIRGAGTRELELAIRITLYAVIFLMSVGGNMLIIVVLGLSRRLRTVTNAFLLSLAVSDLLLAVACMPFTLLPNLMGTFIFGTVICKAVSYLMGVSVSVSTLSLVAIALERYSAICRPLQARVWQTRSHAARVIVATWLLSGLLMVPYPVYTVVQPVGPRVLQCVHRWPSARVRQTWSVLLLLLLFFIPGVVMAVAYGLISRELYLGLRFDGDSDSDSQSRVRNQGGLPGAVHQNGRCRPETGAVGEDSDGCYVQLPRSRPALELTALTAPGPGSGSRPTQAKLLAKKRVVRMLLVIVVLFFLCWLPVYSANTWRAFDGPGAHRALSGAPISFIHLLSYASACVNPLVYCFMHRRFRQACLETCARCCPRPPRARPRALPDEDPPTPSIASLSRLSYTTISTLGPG
From the text: (§1) Procedures for (radio)metal labeling of the DOTA–minigastrin conjugates with ^177Lu^3+ and ^natLu^3+, cell culturing of A431-CCK2R cells, cell internalization (including blocking experiments with excess minigastrin (H-LE5AYGWMDF-NH2)), competition binding assays (IC50), stability measurements in human blood plasma, and determinations of logDpH 7.4 have been reported previously for the in vitro evaluation of TZMGs and were applied to NMGs without alteration.
(§2) Figure 2 (A) Total internalization of ^177Lu-labeled conjugates (2 nM, 5 kBq) in […] cells over 4 h (n = 3–4 in triplicate). […] Data points show mean value ± standard deviation.

[2] = tested on: A431-CCK2R cells; experiment: cell binding and internalization; format: cell-based; conditions: for internalized blocked / membrane-bound blocked: 6000-fold excess of minigastrin; for internalized specific / membrane-bound specific: total minus blocked
From the text: as §1, §2
Cell Internalization Data
Cell internalization was determined and analyzed as described in Grob, et al., J Med Chem, 2020.1 Specific values result from values of total internalization or cell binding minus values obtained in presence of a 6000-fold excess of minigas- […]
Incubation time membrane-bound internalized total blocked specific total blocked specific
Table S3: Complete Internalization Data for 177Lu-labeled NMG 1 as mean ± standard deviation from n = 3–4 in triplicates.
Table S4: Complete Internalization Data for 177Lu-labeled NMG 2 as mean ± standard deviation from n = 3–4 in triplicates.
Table S5: Complete Internalization Data for 177Lu-labeled NMG 3 as mean ± standard deviation from n = 3–4 in triplicates.

[3] = logD pH 7.4 determination; format: physicochemical; conditions: 177Lu-labeled
From the text: as §1

[4] = biodistribution in mice with CCK2R-positive xenografts; format: in vivo, female CD1-nu mice; conditions: female, CD1-nu, mouse, total radioactivity; for tissue uptake at 1 h / tissue uptake at 4 h / tissue uptake at 24 h: in vivo
Method: (§3) Procedures for biodistribution studies with ^177Lu-labeled conjugates (10 pmol, 100 µL, 0.1 µM in PBS, 0.5 MBq, 1 µg/kg) in female CD1-nu mice with xenografts of A431-CCK2R cells at 1, 4, and 24 h p.i., as well as blocking experiments at 4 h p.i. with a 6000-fold excess of minigastrin have been reported previously and were followed without modifications. Statistical analysis was performed via GraphPad Prism using two-sided analysis of variance. n = 4 animals per group.

[5] = tested on: xenografts of A431-CCK2R cells; experiment: as above; format: in vivo, female CD1-nu mice
Method: as §3

[6] = 10 pmol, Stomach (CCK2R-positive) uptake
[7] = 10 pmol, Tumor (CCK2R-positive) uptake
[8] = tumor / blood, 10 pmol, read-out: Tumor-to-Blood ratio
[9] = tumor / kidneys, 10 pmol, read-out: Tumor-to-Kidneys ratio
[10] = tumor / muscle, 10 pmol, read-out: Tumor-to-Muscle ratio
[11] = tumor / stomach, 10 pmol, read-out: Tumor-to-Stomach ratio

CCCC[C@H](NC(=O)[C@H](Cc1c[nH]c2ccccc12)NC(=O)Cn1cc([C@H](Cc2ccc(O)cc2)NC(=O)[C@H](C)n2cc([C@@H](CCC(=O)O)NC(=O)[C@@H](CCC(=O)O)NC(=O)[C@@H](CCC(=O)O)NC(=O)[C@@H](CCC(=O)O)NC(=O)[C@@H](CCC(=O)O)NC(=O)[C@@H](CCC(=O)O)NC(=O)CN3CCN(CC(=O)O)CCN(CC(=O)O)CCN(CC(=O)O)CC3)nn2)nn1)C(=O)N[C@@H](CC(=O)O)C(=O)N[C@@H](Cc1ccccc1)C(N)=O [NMG 3, DOTA-(DGlu)6 -Ψ[Tz]-Ala-Tyr-Ψ[Tz]-Gly-Trp-Nle-Asp-Phe-NH2] ({DOTA}-[dE][dE][dE][dE][dE][X1][X2]W[Nle]DF-NH2)
IC50 [1]: 2 nM
internalized total ([2]; 0.5 h): 33.9 ± 1.1%
membrane-bound total ([2]; 0.5 h): 7.7 ± 0.8%
internalized blocked ([2]; 0.5 h): 0.4 ± 0.3%
membrane-bound blocked ([2]; 0.5 h): 0.9 ± 0.3%
internalized specific ([2]; 0.5 h): 33.5 ± 1.1%
membrane-bound specific ([2]; 0.5 h): 6.8 ± 1.0%
internalized total ([2]; 1 h): 57.2 ± 2.3%
membrane-bound total ([2]; 1 h): 6.4 ± 0.3%
internalized blocked ([2]; 1 h): 0.7 ± 0.3%
membrane-bound blocked ([2]; 1 h): 0.9 ± 0.3%
internalized specific ([2]; 1 h): 56.5 ± 2.1%
membrane-bound specific ([2]; 1 h): 5.5 ± 0.4%
internalized total ([2]; 2 h): 73.4 ± 1.3%
membrane-bound total ([2]; 2 h): 4.0 ± 0.6%
internalized blocked ([2]; 2 h): 5.5 ± 3.9%
membrane-bound blocked ([2]; 2 h): 1.8 ± 1.3%
internalized specific ([2]; 2 h): 67.9 ± 3.4%
membrane-bound specific ([2]; 2 h): 2.2 ± 1.3%
membrane-bound total ([2]; 4 h): 3.2 ± 0.3%
internalized blocked ([2]; 4 h): 18.4 ± 4.3%
membrane-bound blocked ([2]; 4 h): 2.4 ± 0.6%
internalized specific ([2]; 4 h): 57.7 ± 4.2%
membrane-bound specific ([2]; 4 h): 0.8 ± 0.6%
cell-associated radioactivity ([2]; after 4 h of incubation): ~80%
logDpH 7.4 [3]: -3.95 ± 0.42
tissue uptake at 1 h ([4]; 10 pmol, Blood uptake): 0.51 %ID/g
tissue uptake at 4 h ([4]; 10 pmol, Blood uptake): 0.02 %ID/g
tissue uptake at 24 h ([4]; 10 pmol, Blood uptake): < 0.01 %ID/g
tissue uptake at 1 h ([4]; 10 pmol, Bone uptake): 0.45 %ID/g
tissue uptake at 24 h ([4]; 10 pmol, Bone uptake): 0.07 %ID/g
tissue uptake at 1 h ([4]; 10 pmol, Heart uptake): 0.19 %ID/g
tissue uptake at 4 h ([4]; 10 pmol, Heart uptake): 0.03 %ID/g
tissue uptake at 24 h ([4]; 10 pmol, Heart uptake): 0.01 %ID/g
tissue uptake at 1 h ([4]; 10 pmol, Intestines uptake): 0.25 %ID/g
tissue uptake at 4 h ([4]; 10 pmol, Intestines uptake): 0.1 %ID/g
tissue uptake at 24 h ([4]; 10 pmol, Intestines uptake): 0.02 %ID/g
tissue uptake at 1 h ([4]; 10 pmol, Kidneys uptake): 2.01 %ID/g
tissue uptake at 4 h ([4]; 10 pmol, Kidneys uptake): 1.74 %ID/g
tissue uptake at 24 h ([4]; 10 pmol, Kidneys uptake): 1.09 %ID/g
tissue uptake at 1 h ([4]; 10 pmol, Liver uptake): 0.16 %ID/g
tissue uptake at 4 h ([4]; 10 pmol, Liver uptake): 0.07 %ID/g
tissue uptake at 24 h ([4]; 10 pmol, Liver uptake): 0.04 %ID/g
tissue uptake at 1 h ([4]; 10 pmol, Lung uptake): 0.33 %ID/g
tissue uptake at 4 h ([4]; 10 pmol, Lung uptake): 0.07 %ID/g
tissue uptake at 24 h ([4]; 10 pmol, Lung uptake): 0.03 %ID/g
tissue uptake at 1 h ([4]; 10 pmol, Muscle uptake): 0.13 %ID/g
tissue uptake at 24 h ([4]; 10 pmol, Muscle uptake): 0.01 %ID/g
tissue uptake at 1 h ([4]; 10 pmol, Pancreas uptake): 0.49 %ID/g
tissue uptake at 4 h ([4]; 10 pmol, Pancreas uptake): 0.24 %ID/g
tissue uptake at 24 h ([4]; 10 pmol, Pancreas uptake): 0.17 %ID/g
tissue uptake at 1 h ([4]; 10 pmol, Spleen uptake): 0.13 %ID/g
tissue uptake at 4 h ([4]; 10 pmol, Spleen uptake): 0.05 %ID/g
tissue uptake at 1 h [4, 6]: 3.76 %ID/g
tissue uptake at 4 h [4, 6]: 3.11 %ID/g
tissue uptake at 24 h [4, 6]: 1.51 %ID/g
tissue uptake at 1 h [4, 7]: 9.43 %ID/g
tissue uptake at 4 h [4, 7]: 6.9 %ID/g
tissue uptake at 24 h [4, 7]: 5.24 %ID/g
tissue uptake at 4 h ([4]; Blood uptake): 0.03 %ID/g
tissue uptake at 4 h ([4]; Heart uptake): 0.05 %ID/g
tissue uptake at 4 h ([4]; Intestines uptake): 0.07 %ID/g
tissue uptake at 4 h ([4]; Kidneys uptake): 1.88 %ID/g
tissue uptake at 4 h ([4]; Liver uptake): 0.09 %ID/g
tissue uptake at 4 h ([4]; Lung uptake): 0.09 %ID/g
tissue uptake at 4 h ([4]; Pancreas uptake): 0.19 %ID/g
tissue uptake at 4 h ([4]; Spleen uptake): 0.06 %ID/g
tissue uptake at 4 h ([4]; Stomach (CCK2R-positive) uptake): 0.65 %ID/g
tissue uptake at 4 h ([4]; Tumor (CCK2R-positive) uptake): 3.43 %ID/g
tissue to tissue ratio at 1 h [4, 8]: 19.5 ± 7.58
tissue to tissue ratio at 4 h [4, 8]: 345 ± 34.6
tissue to tissue ratio at 24 h [4, 8]: 4370 ± 541
tissue to tissue ratio at 1 h [4, 9]: 4.7 ± 1.2
tissue to tissue ratio at 4 h [4, 9]: 3.99 ± 0.43
tissue to tissue ratio at 24 h [4, 9]: 3.65 ± 0.99
tissue to tissue ratio at 1 h [4, 10]: 79 ± 15.7
tissue to tissue ratio at 4 h [4, 10]: 505 ± 158
tissue to tissue ratio at 24 h [4, 10]: 437 ± 54.1
tissue to tissue ratio at 1 h [4, 11]: 2.66 ± 1.08
tissue to tissue ratio at 4 h [4, 11]: 2.22 ± 0.2
tissue to tissue ratio at 24 h [4, 11]: 3.06 ± 1.44
Tumor washout: tumor uptake relative to 1h ([5]; 4 h): 73%
Tumor washout: tumor uptake relative to 1h ([5]; 24 h): 56%
Blood uptake ([5]; female, CD1-nu, mouse, in vivo, 10 pmol, 1 h): < 0.5 % i.A./g
